Measurements: PMC12028538, “The Characterization of the Purine Nucleoside Phosphorylase from Agaricus bisporus and Its Potential Application in Reducing Purine Content in Beer” (Journal of Fungi, 2025)

Substrate: OC[C@H]1O[C@@H](n2cnc3c(O)ncnc32)[C@H](O)[C@@H]1O
Experiment: HPLC of hypoxanthine formed, Michaelis-Menten fit
Format: biochemical, Agaricus bisporus
Conditions: phosphorolysis, potassium phosphate co-substrate (50 mM in the standard assay), pH 7.0, 60 °C, 0–16 mM inosine, b52 prints the unit as µmol

B1: AbPNP (Agaricus bisporus var. burnettii JB137-S8) (protein)
chain: MKTNILSTVEYIRSQLPPELQQPRVGIVCGSGLSGLAGIIQNIHTIPYANIPGFGTSTVPGHRSELAFGLLGKNGVPVVAMLGRFHFYEGHPLSTVVYPIRVMARLGITEILITNAAGSLNPDIPTGTIVVVHDHIAFPGMAGTNPLMGPQTSPEHPRFLALSDAYSPSLRRLLFLAAHQLSLSKSALAEGTYAWVSGPNYETPAEGILLRSIGVDVVGMSTVPEVLVAREEGLKVMVLSLVTNLVVIPPSYKSIREEVEAELAGQSFVTPEEQVVSHDEVLAVGKEKAEVIKSLVQRVVELLS
notes: N-terminal 6xHis tag; codon-optimized gene in pPIC9K, Pichia pastoris GS115, Ni-NTA purified
- Km: 7.10 µM
- kcat: 14.38 s⁻¹
